Results reported in US20240262899A1 (UNIVERSITY OF VIRGINIA PATENT FOUNDATION, published 2024).

Target: T1, histone H3 (H3) peptide, unmodified (UniProt P68431 2-31)
T1 construct: A synthetic peptide of histone H3, not the whole protein; also called unmodified H3
Test: western blot of peptides
Experimental: Four distinct peptides—histone H3 (H3), citrullinated histone H3 (CitH3; 4 Cit), acetylated histone H3 (AccH3), and methylated histone H3 (MetH3)—at a concentration of 0.5 microgram each, were run in duplicate through SDS-polyacrylamide gel electrophoresis and then transferred to a nitrocellulose membrane (FIG. 7A). This membrane was split into two sections for parallel probing with an equal quantity of Cayman CitH3-mAb (Ann Arbor, MI) or hCitH3-mAb (2 μg/ml) overnight. Post three extensive washes, the sections were incubated with HRP-conjugated secondary antibodies specific to mouse IgG and human IgG (Jackson ImmunoResearch Labs. Cat #309-035-008), respectively, for 2 hours. For concurrent signal development, both membrane sections were exposed simultaneously for the same duration.

B1: Y1128-VH3/VL3 (hCitH3-mAb) (antibody, V domains shown)
VH: EVQVVQSGAEVKKPGATVKISCKASGFNIKDYYMHWMKQRPEQGLEWIGWIDPENGNTIYDPKFQGRATITSDTSTDTAYLELSSLRSEDTAVYYCAPFGNYVWFAYWGQGTLVTVSS
VL: DVLMTQSPLSLPVTLGQPASISCRSSQSIVHSNGITYLEWYLQRPGQSPKLLIYKVSNRFSGVPDRFSGSGSGTDFTLKISRVEAEDVGLYYCFQGSHVPFTFGQGTKLEIKR
notes: Final lead humanized antibody; intact IgG, detected with anti-human IgG secondary; also called H3L3; humanized CitH3 monoclonal antibody
B1: no binding (tested: 2 ug/ml antibody; 0.5 microgram peptide).
